According to paper PMC7647112, “The SiaABC threonine phosphorylation pathway controls biofilm formation in response to carbon availability in Pseudomonas aeruginosa” (PLoS ONE, 2020):

Tests used:
[1] = biological target: C-terminal part of SiaA including the PP2C-like phosphatase domain (SiaA-PP2C, amino acids 386-663) (Pseudomonas aeruginosa); assay: SEC; size-exclusion chromatography of SiaA-PP2C alone; elution compared with markers
[2] = biological target: T1, SiaA-PP2C (Pseudomonas aeruginosa, UniProt Q9I6W0); assay: pNPP phosphatase assay, absorbance […] nm; assay type: biochemical; conditions: read-out: % activity remaining at 0.1 mM fumonisin B1
T1 construct: gene PA0172; C-terminal PP2C phosphatase domain, residues 386-663, His-tagged (pNIC vectors), E. coli BL21(DE3) Rosetta; ~33 kDa monomer, homodimer (66 kDa by SEC)

[3] = biological target: SiaC (Pseudomonas aeruginosa); assay: SEC; SiaB and SiaC mixed in equal molar ratio, incubated at room temperature for 1 h, without ATP and MgCl2; Hiload 16/600 Superdex 200; peaks analysed by SDS-PAGE
[4] = biological target: T1, SiaA-PP2C; assay: pNPP phosphatase assay, absorbance […] nm; assay type: biochemical; conditions: 20 mM MgCl2, 20 mM Tris-HCl pH 7.5, 150 mM NaCl, 37°C; 0.5-5 mM pNPP

C-terminal part of SiaA including the PP2C-like phosphatase domain (SiaA-PP2C, amino acids 386-663) (domain or fragment)
stoichiometry N [1]: 2

CCCC[C@@H](C)[C@@H](OC(=O)C[C@@H](CC(=O)O)C(=O)O)[C@H](C[C@@H](C)C[C@H](O)CCCC[C@@H](O)C[C@H](O)[C@H](C)N)OC(=O)C[C@@H](CC(=O)O)C(=O)O [fumonisin B1]
remaining activity at 100 µM [2]: 35.5%

SiaB (enzyme)
stoichiometry N (SiaB:SiaC (2:2 complex)) [3]: 1

O=[N+]([O-])c1ccc(OP(=O)(O)O)cc1 [para-nitrophenyl phosphate]
pNPP phosphatase assay, absorbance 405 nm [4]: phosphatase activity of SiaA-PP2C was assessed using para-nitrophenyl phosphate (pNPP)
